According to paper PMC4204924:

Molecular target: thrombin (UniProt P00734;P00734 328-363;364-622)
Assay: competition

GGTTGGTGTGGTTGGTTT (structured_DNA) [thrombin aptamer (TA)]: binds.
